This assay has as its target human NPY2 receptor on HEK293/hNPY2R cells (human) (UniProt P49146). In words: cell-based or functional assay.

The values that follow come from patent US20130280279A1, “PHARMACEUTICAL COMPOSITION OF A COMPLEX OF AN ANTI-DIG ANTIBODY AND DIGOXIGENIN THAT IS CONJUGATED TO A PEPTIDE” (HOFFMANN-LA ROCHE INC., priority 2011, published 2013).

Regarding PYY(3-36) (peptide), the IC50 value of the cAMP assay (inhibition of Forskolin stimulated cAMP accumulation in HEK293/hNPY2R cells) was found to be 12 pM.
